Data reported in publication PMC6158740 (Nucleic Acids Research, 2018).

T1: ComM (Vibrio cholerae, UniProt Q9KVV6 1-507)
T1 sequence: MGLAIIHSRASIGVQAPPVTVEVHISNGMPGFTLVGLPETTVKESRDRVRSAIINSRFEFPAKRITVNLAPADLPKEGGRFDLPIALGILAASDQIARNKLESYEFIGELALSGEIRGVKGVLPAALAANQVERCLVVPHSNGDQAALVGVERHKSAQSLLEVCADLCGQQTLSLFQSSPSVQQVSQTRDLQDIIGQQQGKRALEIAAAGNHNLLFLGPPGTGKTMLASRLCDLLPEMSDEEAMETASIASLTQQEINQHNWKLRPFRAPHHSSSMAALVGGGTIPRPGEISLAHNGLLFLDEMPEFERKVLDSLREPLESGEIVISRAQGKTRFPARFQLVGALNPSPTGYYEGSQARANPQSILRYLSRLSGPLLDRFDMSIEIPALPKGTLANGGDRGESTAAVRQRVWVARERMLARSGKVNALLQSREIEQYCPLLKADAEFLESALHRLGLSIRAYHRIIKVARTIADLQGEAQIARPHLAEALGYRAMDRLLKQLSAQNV


Assays:
[1] = target: ComM (Vibrio cholerae, UniProt Q9KVV6); details: AMP-PNP, nonhydrolyzable analogue; pH 7.5, 37 °C
[2] = target: T1, ComM; test: EMSA

Row | Molecule | three-strand branch migration assay, gel; oligomerization assay [1] | binding result [2]
1 | Nc1ncnc2c1ncn2[C@@H]1O[C@H](COP(=O)(O)OP(=O)(O)NP(=O)(O)O)[C@@H](O)[C@H]1O [AMP-PNP] | This activity was inhibited when ComM was incubated with AMP-PNP | 
2 | ATTCCGGGGATCCGTCGACCTGCAGTTCAGAAGCAGCTCCAGCCTACA (ssDNA) [BBC742 ssDNA probe] |  | binds
3 | BBC742/BBC743 dsDNA probe (dsDNA) DNA 1: ATTCCGGGGATCCGTCGACCTGCAGTTCAGAAGCAGCTCCAGCCTACA DNA 2: TGTAGGCTGGAGCTGCTTCTGAACTGCAGGTCGACGGATCCCCGGAAT |  | binds
